Assay results: patent US10766960 (dated 2020)

T1: FcgRIIa R (human, UniProt P12318)
T1 chain: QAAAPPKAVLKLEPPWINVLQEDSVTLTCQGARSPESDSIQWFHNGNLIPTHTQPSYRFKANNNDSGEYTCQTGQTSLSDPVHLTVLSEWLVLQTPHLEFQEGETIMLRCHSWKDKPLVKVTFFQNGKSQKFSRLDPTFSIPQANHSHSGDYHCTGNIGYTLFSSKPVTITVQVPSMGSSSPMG

T2: FcgRIIb (human, UniProt P31994)
T2 chain: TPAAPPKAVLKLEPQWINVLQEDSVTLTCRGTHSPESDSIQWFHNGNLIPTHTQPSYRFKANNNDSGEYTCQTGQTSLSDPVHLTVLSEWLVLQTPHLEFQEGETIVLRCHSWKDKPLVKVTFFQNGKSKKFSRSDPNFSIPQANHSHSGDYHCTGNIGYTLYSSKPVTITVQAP

T3: FcgRIIa H (human, UniProt P12318)
T3 chain: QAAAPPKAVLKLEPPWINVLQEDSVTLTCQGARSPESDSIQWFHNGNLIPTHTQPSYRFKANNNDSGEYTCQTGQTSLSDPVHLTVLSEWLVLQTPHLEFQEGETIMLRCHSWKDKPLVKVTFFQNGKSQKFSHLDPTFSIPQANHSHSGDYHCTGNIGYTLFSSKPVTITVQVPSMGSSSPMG

T4: FcgRIa (human, UniProt P12314)
T4 chain: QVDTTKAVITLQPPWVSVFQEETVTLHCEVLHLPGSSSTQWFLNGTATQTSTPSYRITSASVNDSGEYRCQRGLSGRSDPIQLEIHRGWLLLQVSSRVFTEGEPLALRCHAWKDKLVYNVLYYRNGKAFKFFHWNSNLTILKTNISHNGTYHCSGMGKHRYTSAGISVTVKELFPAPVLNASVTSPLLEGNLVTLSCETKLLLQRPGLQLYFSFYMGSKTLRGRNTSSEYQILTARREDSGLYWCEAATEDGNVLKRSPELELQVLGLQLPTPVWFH


How the values were obtained:
Experiment in all cases: SPR
FcgRIIa R = molecular target: T1, FcgRIIa R
FcgRIIIa V = FcgRIIIa V (human, UniProt P08637)
Chain of FcgRIIIa V (P08637 17-208 F176V): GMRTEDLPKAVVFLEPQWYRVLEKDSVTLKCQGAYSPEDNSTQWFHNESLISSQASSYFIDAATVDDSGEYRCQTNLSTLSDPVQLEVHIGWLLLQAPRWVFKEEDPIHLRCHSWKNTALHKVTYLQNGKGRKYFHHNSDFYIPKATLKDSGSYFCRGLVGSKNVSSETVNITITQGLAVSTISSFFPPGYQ

FcgRIIb = molecular target: T2, FcgRIIb
FcgRIIIa F = FcgRIIIa F (human, UniProt P08637)
Chain of FcgRIIIa F (P08637 17-208): as the sequence (P08637 17-208 F176V) above, with V160F counted along it

FcgRIIa H = molecular target: T3, FcgRIIa H
FcgRIa = molecular target: T4, FcgRIa

Kd (FcgRIIa R) [nM] | Kd (FcgRIIIa V) [nM] | Kd (FcgRIIb) [nM] | Kd (FcgRIIIa F) [nM] | Kd (FcgRIIa H) [nM] | Kd (FcgRIa) [nM] | Binder
560 | 1.4 | 3700 | 3.9 | 150 | 0.091 | H240-Kn201/H240-Hl214/L73-k0 (antibody) chain 1: QDQLVQSGAEVKKPGASVKVSCKASGFNIKDTYIQWVRQAPGQGLEWMGRIDPLRKQTKYREKFEGRVTITADTSTNTAYMELSSLRSEDTAVYYCVRSGREFDYWGQGTLVTVSSASTKGPSVFPLAPSSKSTSGGTAALGCLVKDYFPEPVTVSWNSGALTSGVHTFPAVLQSSGLYSLSSVVTVPSSSLGTQTYICNVNHKPSNTKVDKKVEPKSCDKTHTCPPCPAPEFQWGPMVFLFPPKPKDTLMISRTPEVTCVVVDVSDEEPEVKFNWYVDGVEVHNAKTKPREEQYNATYRVVSVLTVLHQDWLNGKEYKCKVSNKALPAPIEKTISKAKGQPREPQVCTLPPSRDELTKNQVSLWCLVKGFYPSDIAVEWESNGQPENNYKTTPPVLDSDGSFFLYSKLTVDKSRWQQGNVFSCSVMHEALHNHYTQKSLSLSP chain 2: QDQLVQSGAEVKKPGASVKVSCKASGFNIKDTYIQWVRQAPGQGLEWMGRIDPLRKQTKYREKFEGRVTITADTSTNTAYMELSSLRSEDTAVYYCVRSGREFDYWGQGTLVTVSSASTKGPSVFPLAPSSKSTSGGTAALGCLVKDYFPEPVTVSWNSGALTSGVHTFPAVLQSSGLYSLSSVVTVPSSSLGTQTYICNVNHKPSNTKVDKKVEPKSCDKTHTCPPCPAPELLGGPSVFLFPPKPKDTLMISRTPEVTCVVVDVSHEEPEVKFNWYVDGVEVHNAKTKPREEQYNSTYRVVSVLTVLHQDWLNGKEYKCKVSNDALPFPIEETISKAKGQPREPQVYTLPPSRCELTKNQVSLSCAVKGFYPSDIAVEWESNGQPENNYKTTPPVLDSDGSFFLVSKLTVDKSRWQQGNVFSCSVMHEALHNHYTQKSLSLSP chain 3: DIQMTQSPSSLSASVGDRVTITCRASQDIHKYIAWYQQKPGQAPRLLIQYTSTLQPGVPSRFSGSGSGTDYTFTISSLQPEDIATYYCLQYEQLRTFGGGTKVEIKRTVAAPSVFIFPPSDEQLKSGTASVVCLLNNFYPREAKVQWKVDNALQSGNSQESVTEQDSKDSTYSLSSTLTLSKADYEKHKVYACEVTHQGLSSPVTKSFNRGEC
9.6 | 0.93 | 150 | 2.6 | 22 | 0.18 | H240-Kn230/H240-Hl068/L73-k0 (antibody) chain 1: QDQLVQSGAEVKKPGASVKVSCKASGFNIKDTYIQWVRQAPGQGLEWMGRIDPLRKQTKYREKFEGRVTITADTSTNTAYMELSSLRSEDTAVYYCVRSGREFDYWGQGTLVTVSSASTKGPSVFPLAPSSKSTSGGTAALGCLVKDYFPEPVTVSWNSGALTSGVHTFPAVLQSSGLYSLSSVVTVPSSSLGTQTYICNVNHKPSNTKVDKKVEPKSCDKTHTCPPCPAPEVYWGPIVFLFPPKPKDTLMISRTPEVTCVVVDVSDEDPEVKFNWYVDGVEVHNAKTKPREEQYNATYRVVSVLTVLHQDWLNGKEYKCKVSNKDLPAPIEKTISKAKGQPREPQVCTLPPSRDELTKNQVSLWCLVKGFYPSDIAVEWESNGQPENNYKTTPPVLDSDGSFFLYSKLTVDKSRWQQGNVFSCSVMHEALHNHYTQKSLSLSP chain 2: QDQLVQSGAEVKKPGASVKVSCKASGFNIKDTYIQWVRQAPGQGLEWMGRIDPLRKQTKYREKFEGRVTITADTSTNTAYMELSSLRSEDTAVYYCVRSGREFDYWGQGTLVTVSSASTKGPSVFPLAPSSKSTSGGTAALGCLVKDYFPEPVTVSWNSGALTSGVHTFPAVLQSSGLYSLSSVVTVPSSSLGTQTYICNVNHKPSNTKVDKKVEPKSCDKTHTCPPCPAPELLGGPSVFLFPPKPKDTLMISRTPEVTCVVVDVSHEEPEVKFNWYVDGVEVHNAKTKPREEQYNSTYRVVSVLTVLHQDWLNGKEYKCKVSNDALPKPIEETISKAKGQPREPQVYTLPPSRCELTKNQVSLSCAVKGFYPSDIAVEWESNGQPENNYKTTPPVLDSDGSFFLVSKLTVDKSRWQQGNVFSCSVMHEALHNHYTQKSLSLSP chain 3: DIQMTQSPSSLSASVGDRVTITCRASQDIHKYIAWYQQKPGQAPRLLIQYTSTLQPGVPSRFSGSGSGTDYTFTISSLQPEDIATYYCLQYEQLRTFGGGTKVEIKRTVAAPSVFIFPPSDEQLKSGTASVVCLLNNFYPREAKVQWKVDNALQSGNSQESVTEQDSKDSTYSLSSTLTLSKADYEKHKVYACEVTHQGLSSPVTKSFNRGEC
430 | 0.49 | 7200 | 3.2 | 110 | 0.069 | H240-Kn201/H240-Hl210/L73-k0 (antibody) chain 1: QDQLVQSGAEVKKPGASVKVSCKASGFNIKDTYIQWVRQAPGQGLEWMGRIDPLRKQTKYREKFEGRVTITADTSTNTAYMELSSLRSEDTAVYYCVRSGREFDYWGQGTLVTVSSASTKGPSVFPLAPSSKSTSGGTAALGCLVKDYFPEPVTVSWNSGALTSGVHTFPAVLQSSGLYSLSSVVTVPSSSLGTQTYICNVNHKPSNTKVDKKVEPKSCDKTHTCPPCPAPEFQWGPMVFLFPPKPKDTLMISRTPEVTCVVVDVSDEEPEVKFNWYVDGVEVHNAKTKPREEQYNATYRVVSVLTVLHQDWLNGKEYKCKVSNKALPAPIEKTISKAKGQPREPQVCTLPPSRDELTKNQVSLWCLVKGFYPSDIAVEWESNGQPENNYKTTPPVLDSDGSFFLYSKLTVDKSRWQQGNVFSCSVMHEALHNHYTQKSLSLSP chain 2: QDQLVQSGAEVKKPGASVKVSCKASGFNIKDTYIQWVRQAPGQGLEWMGRIDPLRKQTKYREKFEGRVTITADTSTNTAYMELSSLRSEDTAVYYCVRSGREFDYWGQGTLVTVSSASTKGPSVFPLAPSSKSTSGGTAALGCLVKDYFPEPVTVSWNSGALTSGVHTFPAVLQSSGLYSLSSVVTVPSSSLGTQTYICNVNHKPSNTKVDKKVEPKSCDKTHTCPPCPAPELLGGPSVFLFPPKPKDTLMISRTPEVTCVVVDVSHEEPEVKFNWYVDGVEVHNAKTKPREEQYNSTYRVVSVLTVLHQDWLNGKEYKCKVSNDALPAPIEETISKAKGQPREPQVYTLPPSRCELTKNQVSLSCAVKGFYPSDIAVEWESNGQPENNYKTTPPVLDSDGSFFLVSKLTVDKSRWQQGNVFSCSVMHEALHNHYTQKSLSLSP chain 3: DIQMTQSPSSLSASVGDRVTITCRASQDIHKYIAWYQQKPGQAPRLLIQYTSTLQPGVPSRFSGSGSGTDYTFTISSLQPEDIATYYCLQYEQLRTFGGGTKVEIKRTVAAPSVFIFPPSDEQLKSGTASVVCLLNNFYPREAKVQWKVDNALQSGNSQESVTEQDSKDSTYSLSSTLTLSKADYEKHKVYACEVTHQGLSSPVTKSFNRGEC
